According to article PMC11077055, “Structure-functional characterization of Lactococcus AbiA phage defense system” (Nucleic Acids Research, 2024):
Residue numbers refer to the chain shown, from its start. Names may count otherwise.

T1: AbiA (Lactococcus lactis, UniProt Q48596)
T1 construct: full-length, 628 residues, N-terminal His6-tag kept (no SUMO), made in E. coli BL21 Star; plasmid-encoded in the source; homodimer (148 kDa theoretical); co-purifies with covalently attached ssDNA
T1 sequence (Q48596 1-628): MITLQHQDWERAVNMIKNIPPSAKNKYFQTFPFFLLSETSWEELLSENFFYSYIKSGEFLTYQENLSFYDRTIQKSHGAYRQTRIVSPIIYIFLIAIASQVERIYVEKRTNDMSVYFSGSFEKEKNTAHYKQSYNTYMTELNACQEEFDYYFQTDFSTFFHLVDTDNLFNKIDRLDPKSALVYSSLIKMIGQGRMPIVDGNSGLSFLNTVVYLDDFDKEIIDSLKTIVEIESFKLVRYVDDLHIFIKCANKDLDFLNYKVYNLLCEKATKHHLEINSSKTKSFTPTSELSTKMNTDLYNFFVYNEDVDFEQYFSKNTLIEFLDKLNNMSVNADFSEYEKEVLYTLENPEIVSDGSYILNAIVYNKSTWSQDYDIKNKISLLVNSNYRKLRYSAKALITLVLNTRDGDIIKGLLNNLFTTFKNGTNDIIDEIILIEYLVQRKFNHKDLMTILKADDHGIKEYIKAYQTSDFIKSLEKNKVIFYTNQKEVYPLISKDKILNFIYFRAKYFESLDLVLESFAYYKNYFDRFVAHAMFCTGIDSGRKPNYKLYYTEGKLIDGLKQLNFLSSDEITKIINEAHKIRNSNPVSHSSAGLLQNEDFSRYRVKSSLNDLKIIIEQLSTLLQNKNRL

B1: His6-SUMO-AbiA fusion protein (full-length AbiA from L. lactis with uncleaved SUMO tag) (enzyme, UniProt Q48596 1-628, looked up)
chain: T1 sequence (Q48596 1-628)
modifications: co-purified ssDNA; the paper shows covalent attachment, with priming at Tyr298 or Tyr303, on the His-tagged protein; 5-9 nt visible in the structure
notes: AbiA, plasmid-encoded abortive infection RT-like polymerase of Lactococcus lactis, full length, 628 amino acid residues; synthetic gene in pET28a-SUMO; The SUMO tag is not visible in the structure; also called full-length SUMO-tagged AbiA; AbiA with an uncleaved SUMO tag; source: E. coli BL21 STAR, purified (HisTrap HP, Superdex 200); not shown: His6, N-terminal, kept; SUMO, N-terminal, kept
B2: full-length untagged AbiA (enzyme, L. lactis, UniProt Q48596 1-628, looked up)
chain: T1 sequence (Q48596 1-628)
modifications: co-purified ssDNA covalently attached (priming at Tyr298 or Tyr303)
notes: AbiA, plasmid-encoded abortive infection RT-like polymerase of Lactococcus lactis, full length, 628 amino acid residues; The results call it 'untagged'; The only SUMO-free construct in the methods carries an N-terminal His6-tag, and the SUMO tag could not be cleaved, so this is probably His6-AbiA; also called AbiA without SUMO tag; AbiA without a tag; source: E. coli BL21 STAR, purified (HisTrap …)
B3: AbiA L515W (enzyme, L. lactis, UniProt Q48596 1-628, looked up)
chain: T1 sequence (Q48596 1-628) with L515W
notes: AbiA of Lactococcus lactis, 628 residues, with a tryptophan substitution in the dimer interface; The methods say point substitutions were introduced into the N-terminal His6-tag construct; Expression and purification of this variant are not described separately
B4: AbiA Y80W/T269W (enzyme, L. lactis, UniProt Q48596 1-628, looked up)
chain: T1 sequence (Q48596 1-628) with Y80W, T269W
notes: AbiA of Lactococcus lactis, 628 residues, with tryptophan substitutions in the dimer interface; The methods say point substitutions were introduced into the N-terminal His6-tag construct; Expression and purification of this variant are not described separately
B5: AbiA Y80W/T269W/L515W (enzyme, L. lactis, UniProt Q48596 1-628, looked up)
chain: T1 sequence (Q48596 1-628) with Y80W, T269W, L515W
notes: as for B4
B6: AbiA L162W/R601A (enzyme, L. lactis, UniProt Q48596 1-628, looked up)
chain: T1 sequence (Q48596 1-628) with L162W, R601A
notes: AbiA of Lactococcus lactis, 628 residues, with substitutions in the dimer interface; The methods say point substitutions were introduced into the N-terminal His6-tag construct; Expression and purification of this variant are not described separately

Legend:
AbiA = biological target: T1, AbiA; assay: extension of […]-labelled co-purified covalently attached DNA, urea-PAGE autoradiography; type: biochemical; conditions: 200 uM single dNTP, 50 mM Tris pH 7.0, 250 mM NaCl, 10 mM MgCl2, 5 mM DTT, 37 C; DNA pre-labelled with alpha-33P-dATP; template-independent, protein-primed
[1] = biological target: the molecule itself; assay: SEC-MALS; Superdex 200 Increase 10/300 GL; 25 mM Tris pH 7.0, 400 mM NaCl, 2% glycerol, 1 mM DTT; 0.75 ml/min; self-association of AbiA variants
[2] = biological target: the molecule itself; assay: SEC-MALS; GF/MALS of tryptophan substitution variants of the dimer interface; data not shown

Row | Molecule | stoichiometry N [2] | also measured
1 | Nc1ccn([C@H]2C[C@H](O)[C@@H](COP(=O)(O)OP(=O)(O)OP(=O)(O)O)O2)c(=O)n1 [dCTP] |  | extension of 33P-labelled co-purified covalently attached DNA, urea-PAGE autorad (AbiA): dATP and dCTP were incorporated with efficiencies similar to those observed with dNTP mix
2 | Nc1ncnc2c1ncn2[C@H]1C[C@H](O)[C@@H](COP(=O)(O)OP(=O)(O)OP(=O)(O)O)O1 [dATP] |  | extension of 33P-labelled co-purified covalently attached DNA, urea-PAGE autorad (AbiA): dATP and dCTP were incorporated with efficiencies similar to those observed with dNTP mix
3 | B1 |  | stoichiometry N [1]: 2
4 | B2 |  | stoichiometry N [1]: 2
5 | B3 | 2 | 
6 | B4 | 2 | 
7 | B5 | 2 | 
8 | B6 | 2 | 
